Assays:
HLA-A*0201 = target: T1, HLA-A*0201 (Homo sapiens, UniProt P04439, D140Y/D185E/D98H/E176V/E277Q/G131W/G231S/I119V/I121R/I166T/I218V/L300P/L318F/N151K/N90K/P208A/P217A/Q86G/Q94H/R138H/R169H/T345S); test: Affinity of the peptide to T2 cell line (HLA-A*0201 expression, FACS, relative to HIV pol 589-597); assay type: binding; conditions: for mean relative fluorescence intensity of T2 cells: normalized to HIV peptide = 100
T1 construct: human tumoral cell T2 which expresses the HLA-A*0201 molecule; endogenous in cells; host or cells: T2 cells (human, TAP1/2 negative)
Source text: The experimental protocol is similar to the one that was validated for peptides presented by the HLA-A*0201 (Tourdot et al., A general strategy to enhance immunogenicity of low-affinity HLA-A2.1-associated peptides: implication in the identification of cryptic tumor epitopes. Eur J Immunol. 2000 December; 30(12):3411-21). Affinity measurement of the peptides is achieved with the human tumoral cell T2 which expresses the HLA-A*0201 molecule, but which is TAP ½ negative and incapable of presenting endogenous peptides.
(§1) T2 cells (5.104 cells per well) are incubated with decreasing concentrations of peptides from 100 μM to 0.1 μM (4 points: 100 μM, 10 μM, 1 μM, 0.1 μM) in serum-free medium (TexMacs) supplemented with […] of β2 Microglobulin at 37° C. for 16 hours. Cells are then washed two times and marked with the anti-HLA-A2 antibody coupled to PE (clone BB7.2, BD Pharmagen).
The analysis is achieved by FACS (Macsquant analyzer 10-Miltenyi).
For each peptide concentration, the geometric mean of the labelling associated with the peptide of interest is subtracted from background noise and reported as a percentage of the geometric mean of the […] labelling obtained for the reference peptide HIV pol 589-597 at a concentration of 100 μM. […] A2. Solubilisation of Peptides
as §1, with “32” for “β2”
For each peptide concentration, the geometric mean of the labelling associated with the peptide of interest is subtracted from background noise and reported as a percentage of the geometric mean of the […] labelling obtained for the reference peptide HIV pol 589-597 at a concentration of 100 μM.

[1] = test system: CD8 T cells from PBMCs of HLA-A*02 healthy donors; test: Detection of antigenic peptide-specific CD8 T cells with pMHC multimers after in vitro amplification; assay type: cell-based, human; conditions: one HLA-A2 healthy donor, after cell amplification (FIG. 17)
Source text: In vitro amplification method and specific pMHC multimers have been used for identification of CD22-B1, CD37-B1, TNFRSF13C-B1 and MS4A1-B4 specific T cells. pMHC multimers were generated for all the bacteria peptides and their respective human counterpart. PBMCs from several HLA-A*02 healthy donors (up to 19 donors) were collected, enriched after CD137 and CD8 selection and subjected to multiple rounds of in vitro amplification with EO2463 peptides loaded T2 cells to increase the number of specific T cell clones. Detection of OMP peptide specific CD8 T cells using cytometry analysis with the fluorescent multimer was performed on enriched CD8 T cell populations

Sequence: YIFEHPELL (YIFEHPETA) [CD22-B1]
- Concentration of peptide that induces 20% of HLA-A2 expression (HLA-A*0201; T2 cells, peptide 100-0.1 μM, 16 h, 37° C., anti-HLA-A2 FACS): 0.16 µM
- In vitro binding affinity* (relative affinity) (HLA-A*0201; normalized against HIV-pol concentration of peptide inducing 20% of HLA-A2 expression in the same experiment): 0.4
- mean relative fluorescence intensity of T2 cells (HLA-A*0201; peptide 0.1 (μM)): 0
- mean relative fluorescence intensity of T2 cells (HLA-A*0201; peptide 1 (μM)): 81
- mean relative fluorescence intensity of T2 cells (HLA-A*0201; peptide 10 (μM)): 123
- mean relative fluorescence intensity of T2 cells (HLA-A*0201; peptide 100 (μM)): 164
- peptide-specific CD8 T cells detected with fluorescent multimer [1]: 4.6%

From US11759508B2, “Antigenic peptides for treatment of B-cell malignancy” (ENTEROME S.A., priority 2019, dated 2023)
